± gives the standard deviation of the averaged measurements.
Assay: total protein half-life in vivo (active degradation + dilution); higher = more stable protein
[1] = E. coli NCM3722 delta-clpP, growth: N-lim chemostat, doubling time 6 h
[2] = E. coli NCM3722 delta-hslV, growth: N-lim chemostat, doubling time 6 h
[3] = E. coli NCM3722 delta-lon, growth: N-lim chemostat, doubling time 6 h
[4] = E. coli NCM3722 delta-smpB, growth: N-lim chemostat, doubling time 6 h
[5] = wild type E. coli NCM3722, growth: C-lim chemostat, doubling time 3 h
[6] = wild type E. coli NCM3722, growth: C-lim chemostat, doubling time 6 h
[7] = wild type E. coli NCM3722, growth: C-lim chemostat, doubling time 12 h
[8] = wild type E. coli NCM3722, growth: N-lim chemostat, doubling time 6 h
[9] = wild type E. coli NCM3722, growth: N-lim chemostat, doubling time 12 h
[10] = wild type E. coli NCM3722, growth: P-lim chemostat, doubling time 6 h
[11] = wild type E. coli NCM3722, growth: P-lim chemostat, doubling time 12 h
[12] = E. coli NCM3722 delta-clpP delta-lon delta-hslV, growth: N-lim chemostat, doubling time 6 h

Row | Sequence | total protein half-life in vivo [1] [h] | total protein half-life in vivo [2] [h] | total protein half-life in vivo [3] [h] | total protein half-life in vivo [4] [h] | total protein half-life in vivo [5] [h] | total protein half-life in vivo [6] [h] | total protein half-life in vivo [7] [h] | total protein half-life in vivo [8] [h] | total protein half-life in vivo [9] [h] | total protein half-life in vivo [10] [h] | total protein half-life in vivo [11] [h] | total protein half-life in vivo [12] [h]
1 | MKLRWFAFLIVLLAGCSSKHDYTNPPWNAKVPVQRAMQWMPISQKAGAAWGVDPQLITAIIAIESGGNPNAVSKSNAIGLMQLKASTSGRDVYRRMGWSGEPTTSELKNPERNISMGAAYLNILETGPLAGIEDPKVLQYALVVSYANGAGALLRTFSSDRKKAISKINDLDADEFLEHVARNHPAPQAPRYIYKLEQALDAM [P0C960] | 4.98 ± 0.62 | 3.8 ± 0.54 | 3.57 ± 0.47 | 2.72 ± 0.08 | 1.97 ± 0.14 | 2.98 ± 0.34 | 6.46 ± 0.21 | 2.84 ± 0.17 | 3.2 | 4 ± 0.3 | 7.81 ± 0.18 | 
2 | MKLSRRSFMKANAVAAAAAAAGLSVPGVARAVVGQQEAIKWDKAPCRFCGTGCGVLVGTQQGRVVACQGDPDAPVNRGLNCIKGYFLPKIMYGKDRLTQPLLRMKNGKYDKEGEFTPITWDQAFDVMEEKFKTALKEKGPESIGMFGSGQWTIWEGYAASKLFKAGFRSNNIDPNARHCMASAVVGFMRTFGMDEPMGCYDDIEQADAFVLWGANMAEMHPILWSRITNRRLSNQNVTVAVLSTYQHRSFELADNGIIFTPQSDLVILNYIANYIIQNNAINQDFFSKHVNLRKGATDIGYGLRPTHPLEKAAKNPGSDASEPMSFEDYKAFVAEYTLEKTAEMTGVPKDQLEQLAQLYADPNKKVISYWTMGFNQHTRGVWANNLVYNLHLLTGKISQPGCGPFSLTGQPSACGTAREVGTFAHRLPADMVVTNEKHRDICEKKWNIPSGTIPAKIGLHAVAQDRALKDGKLNVYWTMCTNNMQAGPNINEERMPGWRDPRNFIIVSDPYPTVSALAADLILPTAMWVEKEGAYGNAERRTQFWRQQVQAPGEAKSDLWQLVQFSRRFKTEEVWPEDLLAKKPELRGKTLYEVLYATPEVSKFPVSELAEDQLNDESRELGFYLQKGLFEEYAWFGRGHGHDLAPFDDYHKARGLRWPVVNGKETQWRYSEGNDPYVKAGEGYKFYGKPDGKAVIFALPFEPAAEAPDEEYDLWLSTGRVLEHWHTGSMTRRVPELHRAFPEAVLFIHPLDAKARDLRRGDKVKVVSRRGEVISIVETRGRNRPPQGLVYMPFFDAAQLVNKLTLDATDPLSKETDFKKCAVKLEKV |  | 5.32 ± 0.18 | 3.56 ± 0.76 | 3.46 ± 0.36 | 2.03 ± 0.31 | 4.52 ± 0.7 | 8.61 ± 1.2 | 4.268 ± 0.041 | 5.85 ± 2.3 | 3.574 ± 0.034 | > 16 | 4.71
3 | MKLVHMASGLAVAIALAACADKSADIQTPAPAANTSISATQQPAIQQPNVSGTVWIRQKVALPPDAVLTVTLSDASLADAPSKVLAQKAVRTEGKQSPFSFVLSFNPADVQPNARILLSAAITVNDKLVFITDTVQPVINQGGTKADLTLVPVQQTAVPVQASGGATTTVPSTSPTQVNPSSAVPAPTQY | 6.1 ± 0.34 | 6.08 | 6.69 ± 0.2 | 5.23 ± 0.59 | 3.57 ± 0.22 | 5.53 ± 0.0062 | 11.4 ± 4.4 | 5.25 | 9.14 ± 0.82 | 5.51 ± 0.33 | 11.8 ± 0.68 | 4.41 ± 0.88
4 | MKMTKLATLFLTATLSLASGAALAADSGAQTNNGQANAAADAGQVAPDARENVAPNNVDNNGVNTGSGGTMLHSDGSSMNNDGMTKDEEHKNTMCKDGRCPDINKKVQTGDGINNDVDTKTDGTTQ [P0AAV6] | 4.92 ± 2.1 | 5.44 ± 0.35 | 6.63 ± 0.59 | 3.73 ± 1.6 | 1.7 | 5.24 | 4.86 | 4.78 | 10.7 ± 3.5 | 5.84 | 10.2 ± 1.1 | 4.05
5 | MKNASTVSEDTASNQEPTLHRGLHNRHIQLIALGGAIGTGLFLGIGPAIQMAGPAVLLGYGVAGIIAFLIMRQLGEMVVEEPVSGSFAHFAYKYWGPFAGFLSGWNYWVMFVLVGMAELTAAGIYMQYWFPDVPTWIWAAAFFIIINAVNLVNVRLYGETEFWFALIKVLAIIGMIGFGLWLLFSGHGGEKASIDNLWRYGGFFATGWNGLILSLAVIMFSFGGLELIGITAAEARDPEKSIPKAVNQVVYRILLFYIGSLVVLLALYPWVEVKSNSSPFVMIFHNLDSNVVASALNFVILVASLSVYNSGVYSNSRMLFGLSVQGNAPKFLTRVSRRGVPINSLMLSGAITSLVVLINYLLPQKAFGLLMALVVATLLLNWIMICLAHLRFRAAMRRQGRETQFKALLYPFGNYLCIAFLGMILLLMCTMDDMRLSAILLPVWIVFLFMAFKTLRRK | 5.51 |  |  | 5.23 ± 0.36 |  |  |  |  |  |  | > 16 | 5.66
6 | MKNCVIVSAVRTAIGSFNGSLASTSAIDLGATVIKAAIERAKIDSQHVDEVIMGNVLQAGLGQNPARQALLKSGLAETVCGFTVNKVCGSGLKSVALAAQAIQAGQAQSIVAGGMENMSLAPYLLDAKARSGYRLGDGQVYDVILRDGLMCATHGYHMGITAENVAKEYGITREMQDELALHSQRKAAAAIESGAFTAEIVPVNVVTRKKTFVFSQDEFPKANSTAEALGALRPAFDKAGTVTAGNASGINDGAAALVIMEESAALAAGLTPLARIKSYASGGVPPALMGMGPVPATQKALQLAGLQLADIDLIEANEAFAAQFLAVGKNLGFDSEKVNVNGGAIALGHPIGASGARILVTLLHAMQARDKTLGLATLCIGGGQGIAMVIERLN | 3.36 |  | 2.93 ± 0.073 | 2.808 ± 0.0077 | 3.34 | 5.45 ± 1.1 | 8 | 2.92 ± 0.27 | 3.67 ± 0.067 | 5.43 |  | 4.78 ± 0.92
